These results are taken from patent US20200317768A1 (published 2020).

Assay [1] has as its target T1, human FcγRIIaH extracellular domain with C-terminal His-tag (human, UniProt P12318 34-217).
T1 construct: also called human FcgRIIaH; FcγRIIa (type H)
T1 sequence: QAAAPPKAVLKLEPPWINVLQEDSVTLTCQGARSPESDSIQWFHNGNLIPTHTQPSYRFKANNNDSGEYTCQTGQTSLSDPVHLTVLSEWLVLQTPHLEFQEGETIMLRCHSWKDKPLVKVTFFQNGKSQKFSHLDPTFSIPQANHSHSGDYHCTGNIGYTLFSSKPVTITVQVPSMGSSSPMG
Put plainly: SPR (BIACORE); KD of SG1 / KD of variant.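 Note: relative to parent M103205H795-SG1 carrying the SG1 human heavy chain constant region.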 As to the method:
(§1) The kinetic analysis of interactions between these antibodies and FcγR was carried out using BIACORE® T200 or BIACORE® 4000 (GE Healthcare). HBS-EP+ (GE Healthcare) was used as the running buffer, and the measurement temperature was set to 25° C. A chip produced by immobilizing Protein A. Protein A/G or mouse anti-human IgG kappa light chain (BD Biosciences) onto a Series S Sensor Chip CM4 or CM5 (GE Healthcare) by the amine-coupling method was used. […] After the measurement, the antibody captured on the chip was washed off by allowing reaction with 10 mM glycine-HCl, pH1.5 and 25 mM NaOH so that the chip was regenerated and used repeatedly. The sensorgrams obtained as measurement results were analyzed by the 1:1 Langmuir binding model using the BIACORE® Evaluation Software to calculate the binding rate constant ka (L/mol/s) and dissociation rate constant kd (l/s), and the dissociation constant KD (mol/L) was calculated from these values. […] Regarding such interactions, KD values were calculated using the following 1:1 binding model described in BIACORE® T100 Software Handbook BR1006-48 Edition AE.
(§2) The behavior of interacting molecules according to the 1:1 binding model on BIACORE® can be described by Equation 1: Req=C·R max/(KD+C)+RI, wherein, Req is a plot of steady-state binding levels to analyte concentration. C is concentration, RI is bulk refractive index contribution in the sample, and Rmax is analyte binding capacity of the surface. When this equation is rearranged, KD can be expressed as Equation 2: KD=C·Rmax/(Req−RI)−C. KD can be calculated by substituting the values of Rmax, RI, and C into Equation 1 or Equation 2. From the current measurement conditions, RI=0, C=2 μmol/L can be used.
A general note: In SPR one partner is held on a chip, and binding of the other changes the refractive index at the surface.

For assay [2], the target named is T2, cynomolgus monkey FcγRIIa1 extracellular domain with C-terminal His-tag (cynomolgus monkey).
T2 construct: also called cyno FcgRIIa1; cynoFcγRIIa1
T2 chain: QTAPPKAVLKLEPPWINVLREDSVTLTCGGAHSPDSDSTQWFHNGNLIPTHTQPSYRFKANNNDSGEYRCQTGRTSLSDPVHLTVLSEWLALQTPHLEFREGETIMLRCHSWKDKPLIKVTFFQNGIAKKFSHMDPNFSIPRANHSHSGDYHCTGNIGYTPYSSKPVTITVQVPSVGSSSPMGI
Briefly: SPR (BIACORE); KD of SG1 / KD of variant.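 Note: relative to parent M103205H795-SG1 carrying the SG1 human heavy chain constant region.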 As to the method: as §1, §2

The target of assay [3] is T3, cynomolgus monkey FcγRIIa3 extracellular domain with C-terminal His-tag (cynomolgus monkey).
T3 construct: also called cyno FcgRIIa3; cynoFcγRIIa3
T3 chain: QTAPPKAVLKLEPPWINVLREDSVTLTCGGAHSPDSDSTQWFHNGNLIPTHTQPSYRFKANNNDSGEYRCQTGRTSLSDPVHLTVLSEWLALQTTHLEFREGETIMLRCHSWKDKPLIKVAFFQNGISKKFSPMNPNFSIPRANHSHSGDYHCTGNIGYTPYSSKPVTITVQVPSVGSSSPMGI
Briefly: SPR (BIACORE); KD of SG1 / KD of variant.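 Note: relative to parent M103205H795-SG1 carrying the SG1 human heavy chain constant region.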 As to the method: as §1, §2

Assay [4] has as its target T4, cynomolgus monkey FcγRIIIaS extracellular domain with C-terminal His-tag (cynomolgus monkey, UniProt Q8SPW2 21-206 at identity 1.00)).
T4 construct: also called cyno FcgRIIIaS; cynoFcγRIIIaS
T4 chain: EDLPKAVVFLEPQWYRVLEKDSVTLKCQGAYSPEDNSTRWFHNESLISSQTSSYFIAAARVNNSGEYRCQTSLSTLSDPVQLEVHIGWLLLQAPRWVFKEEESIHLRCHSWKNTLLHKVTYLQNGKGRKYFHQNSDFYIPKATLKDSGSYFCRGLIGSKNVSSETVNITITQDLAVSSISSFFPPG
Put plainly: SPR (BIACORE), antibody captured, FcgR analyte. As for the experimental part:
as §1, §2

Assay [5] addresses T1, human FcγRIIaH extracellular domain …. Briefly: SPR (BIACORE), antibody captured, FcgR analyte. As to the method:
as §1, §2

In assay [6] the target is T5, cynomolgus monkey FcγRIIb extracellular domain with C-terminal His-tag (cynomolgus monkey).
T5 construct: also called cyno FcgRIIb; cynoFcγRIIb
T5 chain: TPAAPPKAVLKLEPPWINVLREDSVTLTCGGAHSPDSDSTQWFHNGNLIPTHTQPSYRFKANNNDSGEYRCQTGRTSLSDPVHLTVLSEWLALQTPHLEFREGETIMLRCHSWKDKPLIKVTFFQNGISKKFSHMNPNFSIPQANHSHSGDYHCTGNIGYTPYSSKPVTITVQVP
Put plainly: SPR (BIACORE), antibody captured, FcgR analyte. As to the method:
as §1, §2

The target of assay [7] is T6, human FcγRIIb extracellular domain with C-terminal His-tag (human, UniProt P31994 43-217).
T6 construct: also called human FcgRIIb
T6 sequence: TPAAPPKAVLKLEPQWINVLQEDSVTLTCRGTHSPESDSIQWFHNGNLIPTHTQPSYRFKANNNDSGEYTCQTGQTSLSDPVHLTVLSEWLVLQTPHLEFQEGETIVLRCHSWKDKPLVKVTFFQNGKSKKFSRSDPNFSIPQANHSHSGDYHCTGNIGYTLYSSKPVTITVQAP
Briefly: SPR (BIACORE), antibody captured, FcgR analyte. As to the method: as §1, §2

Assay [8] concerns the target T2, cynomolgus monkey FcγRIIa1 …. Briefly: SPR (BIACORE), antibody captured, FcgR analyte. As for the experimental part:
as §1, §2

In assay [9] the target is T3, cynomolgus monkey FcγRIIa3 …. Put plainly: SPR (BIACORE), antibody captured, FcgR analyte. As for the experimental part:
as §1, §2

Assay [10] deals with T7, cynomolgus monkey FcγRIIa2 extracellular domain with C-terminal His-tag (cynomolgus monkey).
T7 construct: also called cyno FcgRIIa2; cynoFcγRIIa2
T7 chain: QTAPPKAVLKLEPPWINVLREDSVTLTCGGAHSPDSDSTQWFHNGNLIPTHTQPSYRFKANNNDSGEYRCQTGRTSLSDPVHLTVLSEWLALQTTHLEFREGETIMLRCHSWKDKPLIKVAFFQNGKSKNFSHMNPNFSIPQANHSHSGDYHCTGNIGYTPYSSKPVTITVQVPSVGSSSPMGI
Briefly: SPR (BIACORE), antibody captured, FcgR analyte. As to the method:
as §1, §2

B1: MS_M103205H795-SG1/M103202L889-SK1 (antibody, human IgG1, kappa)
heavy: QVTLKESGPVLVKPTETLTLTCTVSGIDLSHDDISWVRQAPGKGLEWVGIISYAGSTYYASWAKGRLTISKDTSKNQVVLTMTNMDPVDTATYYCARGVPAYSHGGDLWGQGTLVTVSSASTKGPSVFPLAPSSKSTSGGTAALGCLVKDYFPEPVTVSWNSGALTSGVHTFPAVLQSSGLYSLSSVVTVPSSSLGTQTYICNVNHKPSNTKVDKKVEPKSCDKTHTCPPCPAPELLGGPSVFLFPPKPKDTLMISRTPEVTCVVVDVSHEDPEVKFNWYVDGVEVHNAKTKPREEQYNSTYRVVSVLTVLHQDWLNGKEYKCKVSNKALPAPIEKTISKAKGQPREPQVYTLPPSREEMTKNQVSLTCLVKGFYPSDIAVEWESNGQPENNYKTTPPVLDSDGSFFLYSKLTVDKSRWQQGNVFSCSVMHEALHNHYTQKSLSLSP
light: DIVMTQSPATLSLSPGERATLSCTSSQSVYHANWLSWFQQKPGQPPKLLIYWASTLAYGVPSRFSGSGSGTDFTLTISSLQPEDAATYYCAGGYGGGRYAFGQGTKVEIKRTVAAPSVFIFPPSDEQLKSGTASVVCLLNNFYPREAKVQWKVDNALQSGNSQESVTEQDSKDSTYSLSSTLTLSKADYEKHKVYACEVTHQGLSSPVTKSFNRGEC
notes: Parent antibody of the Fc variants; also called MS1032LO06-SG1
One may read the Kd as the constant that tells how readily two partners part at equilibrium. As for B1, the “KD fold (SG1 = 1)” value in assay [1], in assay [2] and in [3] was 1 fold in each case. Further, the dissociation constant (Kd) in assay [4] amounted to 0.36 µM; in assay [5], 0.69 µM; in [6], 1.8 µM; in assay [7] it was 4.6 µM; in [8], 3.2 µM; in assay [9], 17 µM. Also, in assay [10], the affinity, expressed as Kd, was 5.1 µM.
